Experimental data as given in patent publication US20230330257A1 (BEIJING TIANNUOJIANCHENG PHARMA TECH, published 2023).

T1: recombinant human CD3εγ-Fc heterodimer (human)
T1 construct: Extracellular regions of CD3γ and CD3ε as Fc hole/knob heterodimer; also called human CD3εγ protein; recombinant human CD3γ/ε antigen
T1 chain 1: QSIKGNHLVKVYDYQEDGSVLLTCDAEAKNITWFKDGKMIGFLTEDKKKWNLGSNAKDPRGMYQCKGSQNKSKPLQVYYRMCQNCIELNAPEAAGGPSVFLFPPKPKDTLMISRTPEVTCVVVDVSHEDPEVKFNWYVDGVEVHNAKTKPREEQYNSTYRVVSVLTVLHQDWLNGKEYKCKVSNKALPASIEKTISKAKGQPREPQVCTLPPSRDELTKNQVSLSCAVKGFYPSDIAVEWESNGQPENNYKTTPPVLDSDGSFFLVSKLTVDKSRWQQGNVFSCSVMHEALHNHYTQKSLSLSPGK
T1 chain 2: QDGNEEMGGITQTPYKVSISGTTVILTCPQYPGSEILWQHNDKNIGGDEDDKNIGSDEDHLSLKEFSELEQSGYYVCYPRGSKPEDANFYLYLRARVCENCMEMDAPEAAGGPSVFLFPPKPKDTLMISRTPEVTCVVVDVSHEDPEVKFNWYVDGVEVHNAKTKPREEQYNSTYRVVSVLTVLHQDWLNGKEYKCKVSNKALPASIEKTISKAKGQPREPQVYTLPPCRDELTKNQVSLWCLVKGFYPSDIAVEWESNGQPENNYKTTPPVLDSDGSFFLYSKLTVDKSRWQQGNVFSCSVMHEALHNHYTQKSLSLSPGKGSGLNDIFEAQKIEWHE

T2: human CD20 (human, UniProt P11836 1-297)
T2 construct: whole, on cells; also called CD20 receptor; CHO-human CD20 (clone 3G6)
T2 sequence (looked up): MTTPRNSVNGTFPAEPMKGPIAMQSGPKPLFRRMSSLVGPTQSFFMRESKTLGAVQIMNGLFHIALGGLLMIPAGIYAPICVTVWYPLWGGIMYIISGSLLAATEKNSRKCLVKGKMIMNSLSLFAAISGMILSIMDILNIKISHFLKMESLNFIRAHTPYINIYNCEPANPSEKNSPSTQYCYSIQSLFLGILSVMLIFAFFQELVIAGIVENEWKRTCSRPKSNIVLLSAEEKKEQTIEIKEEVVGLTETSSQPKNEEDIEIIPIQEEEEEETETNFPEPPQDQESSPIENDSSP

B1: aCD3-hVH9/VL2 (antibody, human IgG4, V domains shown)
VH: EVQLVESGGGLVQPGGSLRLSCAASGFTFNTYAMNWVRKAPGKGLEWVGRIRSKYNNYATYYADSVKDRFTISRDDSKNSLYLQMNSLKTEDTAVYYCVRHGNFGNSYVSWFAYWGQGTLVTVSS
VL: QAVVTQEPSLTVSPGGTVTLTCRSSTGAVTTSNYANWVQEKPGQAPRGLIGGTNKRAPWTPARFSGSLLGGKAALTLSGAQPEDEAEYYCALWYSNLWVFGGGTKLTVL
notes: Expressed with an antibody lambda light chain constant region and human IgG4 heavy chain constant regions CH1-CH3; also called humanized anti-CD3 antibody hVH9/VL2
B2: aCD3-hVH8/VL1 (antibody, human IgG4, V domains shown)
VH: EVQLVESGGGLVQPGGSLRLSCAASGFTFNTYAMNWVRKAPGKGLEWVGRIRSKYNNYATYYADSVKDRFTISRDDSKNSLYLQMNSLKTEDTAVYYCARHGNFGNSYVSWFAYWGQGTLVTVSS
VL: QAVVTQEPSLTVSPGGTVTLTCRSSTGAVTTSNYANWVQQKPGQAPRGLIGGTNKRAPWTPARFSGSLLGGKAALTLSGAQPEDEAEYYCALWYSNLWVFGGGTKLTVL
notes: Expressed with an antibody lambda light chain constant region and human IgG4 heavy chain constant regions CH1-CH3; also called humanized anti-CD3 antibody hVH8/VL1
B3: aCD3-hVH8/VL5 (antibody, human IgG4, V domains shown)
VH: EVQLVESGGGLVQPGGSLRLSCAASGFTFNTYAMNWVRKAPGKGLEWVGRIRSKYNNYATYYADSVKDRFTISRDDSKNSLYLQMNSLKTEDTAVYYCARHGNFGNSYVSWFAYWGQGTLVTVSS
VL: QAVVTQEPSLTVSPGGTVTLTCRSSTGAVTTSNYANWVQEKPGQAPRGLIGGTNKRAPWTPARFSGSLLGGKAALTITGAQAEDEAEYYCVLWYSNLWVFGGGTKLTVL
notes: Expressed with an antibody lambda light chain constant region and human IgG4 heavy chain constant regions CH1-CH3; also called aCD3-hVH8/VLS (so in the source)
B4: aCD3-hVH1/VL5 (antibody, human IgG4, V domains shown)
VH: EVQLVESGGGLVQPGGSLRLSCAASGFTFNTYAMNWVRQAPGKGLEWVSRIRSKYNNYATYYADSVKDRFTISRDDSKNTLYLQMNSLKTEDTAVYYCVRHGNFGNSYVSWFAYWGQGTLVTVSS
VL: QAVVTQEPSLTVSPGGTVTLTCRSSTGAVTTSNYANWVQEKPGQAPRGLIGGTNKRAPWTPARFSGSLLGGKAALTITGAQAEDEAEYYCVLWYSNLWVFGGGTKLTVL
notes: Expressed with an antibody lambda light chain constant region and human IgG4 heavy chain constant regions CH1-CH3; also called humanized anti-CD3 antibody hVH1/VL5
B5: aCD3-hVH9/VL5 (antibody, human IgG4, V domains shown)
VH: EVQLVESGGGLVQPGGSLRLSCAASGFTFNTYAMNWVRKAPGKGLEWVGRIRSKYNNYATYYADSVKDRFTISRDDSKNSLYLQMNSLKTEDTAVYYCVRHGNFGNSYVSWFAYWGQGTLVTVSS
VL: QAVVTQEPSLTVSPGGTVTLTCRSSTGAVTTSNYANWVQEKPGQAPRGLIGGTNKRAPWTPARFSGSLLGGKAALTITGAQAEDEAEYYCVLWYSNLWVFGGGTKLTVL
notes: Expressed with an antibody lambda light chain constant region and human IgG4 heavy chain constant regions CH1-CH3; also called humanized anti-CD3 antibody hVH9/VL5
B6: aCD3-hVH9/VL3 (antibody, human IgG4, V domains shown)
VH: EVQLVESGGGLVQPGGSLRLSCAASGFTFNTYAMNWVRKAPGKGLEWVGRIRSKYNNYATYYADSVKDRFTISRDDSKNSLYLQMNSLKTEDTAVYYCVRHGNFGNSYVSWFAYWGQGTLVTVSS
VL: EAVVTQEPSLTVSPGGTVTLTCESSDGAVTTSNYANWVQEKPGQAPRGLIGGTNKEAPWTPARFSGSLLGGKAALTLSGAQPEDEAEYYCALWYSNLWVFGGGTKLTVL
notes: Expressed with an antibody lambda light chain constant region and human IgG4 heavy chain constant regions CH1-CH3; also called humanized anti-CD3 antibody hVH9/VL3
B7: aCD3-hVH9/VL1 (antibody, human IgG4, V domains shown)
VH: EVQLVESGGGLVQPGGSLRLSCAASGFTFNTYAMNWVRKAPGKGLEWVGRIRSKYNNYATYYADSVKDRFTISRDDSKNSLYLQMNSLKTEDTAVYYCVRHGNFGNSYVSWFAYWGQGTLVTVSS
VL: QAVVTQEPSLTVSPGGTVTLTCRSSTGAVTTSNYANWVQQKPGQAPRGLIGGTNKRAPWTPARFSGSLLGGKAALTLSGAQPEDEAEYYCALWYSNLWVFGGGTKLTVL
notes: Expressed with an antibody lambda light chain constant region and human IgG4 heavy chain constant regions CH1-CH3; also called humanized anti-CD3 antibody hVH9/VL1
B8: Mab001 (antibody, V domains shown)
VH: QVQLVQSGAEVKKPGSSVKVSCKASGYTFTSYNMHWVRQAPGQGLEWMGAIYPGNGDTSYNQKFQGRVTLTADKSSSTAYMELSSLRSEDTAVYYCARSTYYGGDWYFNVWGQGTLVTVSS
VL: EIVLTQSPGTLSLSPGERATLSCRASSSVSYIHWFQQKPGQAPRPLIYATSNLASGIPDRFSGSGSGTDYTLTISRLEPEDFAVYYCQQWTSNPPTFGQGTKLEIK
notes: also called humanized Mab001 antibody; humanized anti-CD20 antibody
B9: Mab002 (antibody, V domains shown)
VH: QVQLVQSGAEVKKPGSSVKVSCKASGYTFTSYNMHWVRQAPGQGLEWMGAIYPGNGDTSYNQKFQGRVTLTADKSSSTAYMELSSLRSEDTAVYYCARSTYYGGDWYFDYWGQGTLVTVSS
VL: EIVLTQSPGTLSLSPGERATLSCRASSSVSYIHWFQQKPGQAPRPLIYATSNLASGIPDRFSGSGSGTDYTLTISRLEPEDFAVYYCQQWTSNPPTFGQGTKLEIK
notes: also called humanized Mab002 antibody; humanized anti-CD20 antibody
B10: Mab005 (antibody, V domains shown)
VH: EVQLLESGGGLVQPGGSLRLSCAASGFTFNDYAMHWVRQAPGKGLEWVSTISWNSGSIGYADSVKGRFTISRDNSKNTLYLQMNSLRAEDTAVYYCAKDIQYGNYYYGMDVWGQGTLVTVSS
VL: EIVLTQSPGTLSLSPGERATLSCRASQSVSSYLAWYQQKPGQAPRLLIYDASNRATGIPDRFSGSGSGTDFTLTISRLEPEDFAVYYCQQRSNWPITFGQGTKLEIK
notes: also called humanized Mab005 antibody; humanized anti-CD20 antibody
B11: Mab004 (antibody, V domains shown)
VH: EVQLLESGGGLVQPGGSLRLSCAASGFTFNDYAMHWVRQAPGKGLEWVSTISWNSGSIGYADSVKGRFTISRDNAKKTLYLQMNSLRAEDTAVYYCAKDIQYGNYYYGMDVWGQGTLVTVSS
VL: EIVLTQSPGTLSLSPGERATLSCRASQSVSSYLAWYQQKPGQAPRLLIYDASNRATGIPDRFSGSGSGTDFTLTISRLEPEDFAVYYCQQRSNWPITFGQGTKLEIK
notes: also called humanized Mab004 antibody; humanized anti-CD20 antibody
B12: Mab006 (antibody, V domains shown)
VH: EVQLLESGGGVVQPGGSLRLSCAASGFTFNDYAMHWVRQAPGKGLEWVSTISWNSGSIGYADSVKGRFTISRDNSKNTLYLQMNSLRAEDTAVYYCAKDIQYGNYYYGMDVWGQGTLVTVSS
VL: EIVLTQSPGTLSLSPGERATLSCRASQSVSSYLAWYQQKPGQAPRLLIYDASNRATGIPDRFSGSGSGTDFTLTISRLEPEDFAVYYCQQRSNWPITFGQGTKLEIK
notes: also called humanized Mab006 antibody; humanized anti-CD20 antibody
B13: Mab007 (antibody, V domains shown)
VH: EVQLLESGGGVVQPGGSLRLSCAASGFTFNDYAMHWVRQAPGKGLEWVSTISWNSGSIGYADSVKGRFTISRDNSKNTLYLQMNSLRAEDTAVYYCAKDIQYGNYYYGMDYWGQGTLVTVSS
VL: EIVLTQSPGTLSLSPGERATLSCRASQSVSSYLAWYQQKPGQAPRLLIYDASNRATGIPDRFSGSGSGTDFTLTISRLEPEDFAVYYCQQRSNWPITFGQGTKLEIK
notes: also called humanized Mab007 antibody; humanized anti-CD20 antibody

Molecular target: T1, recombinant human CD3εγ-Fc heterodimer
Assay: ELISA, human CD3εγ protein coated on the plate, HRP goat anti-human IgG Fc, A450
Protocol: Human CD3εγ protein was coated onto a plate and placed at 4° C. overnight.

Binder	EC50 (read off the curve) [pM]
B1	~600
B2	~600
B3	~600
B4	~600
B5	~500
B6	~600
B7	~600

Molecular target: T2, human CD20
Assay: flow cytometry on Raji cells, Alexa Fluor 647 goat anti-human IgG Fc
Protocol: (§1) A lymphoma cell line Raji and Daudi cells in the logarithmic growth phase were taken, 200 μg/mL mouse IgG (Jackson ImmunoResearch) was added, and the mixture was blocked for 30 min. 5×10⁴ cells and 50 μL, of gradient-diluted antibody (the initial concentration of 200 nM, 5-fold dilution, a total of 8 gradients) were added to each well of a 96-well U-shaped plate, and incubated on ice for 45 min. After the cells were washed, 50 μL, of Alexa Fluro647-labelled goat anti-human IgG Fc (1: 300 dilution) was added to each well, and the mixture was incubated on ice for 45 min. 60 μL, of PI (Sigma, P4170) was added to each well, and the mixture was incubated for 5 min and detected by using a flow cytometer (iQue Screener).

Binder	binding result
B8	binds
B9	binds

Molecular target: T2, human CD20
Assay: flow cytometry on Daudi cells, Alexa Fluor 647 goat anti-human IgG Fc
Protocol: as §1

Binder	EC50 (read off the curve) [pM]
B10	~10000
B11	~10000
B12	~10000
B13	~10000
